{"source": "patent US20240254229A1", "about": "(Molecular Partners, published 2024)", "key": {"[1]": {"molecular_target": "T1, Molm-13 N1 tumor cells (carrying CD123, CD33 and CD70) (human, UniProt P20138 18-364; P26951 19-378; P32970 1-193)", "T1 construct": "whole, on cells; Not a complex: three separate antigens on one cell; also called Molm-13 N1 cells", "T1 sequence (P20138 18-364, one chain of several)": "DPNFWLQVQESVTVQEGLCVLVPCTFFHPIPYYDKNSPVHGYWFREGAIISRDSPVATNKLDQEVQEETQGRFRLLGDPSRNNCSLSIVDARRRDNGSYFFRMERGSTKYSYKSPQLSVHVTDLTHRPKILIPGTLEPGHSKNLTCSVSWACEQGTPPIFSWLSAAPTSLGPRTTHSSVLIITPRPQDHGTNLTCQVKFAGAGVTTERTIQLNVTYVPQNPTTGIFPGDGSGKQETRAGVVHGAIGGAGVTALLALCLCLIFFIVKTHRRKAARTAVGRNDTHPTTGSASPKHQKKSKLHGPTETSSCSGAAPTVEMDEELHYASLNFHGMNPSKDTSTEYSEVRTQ", "assay": "flow cytometry on Molm-13 N1 cells, 20 uM HSA", "description": "The determination of binding of several multispecific proteins to tumor cells was performed by Fluorescence Activated Cell Sorting (FACS) flow cytometry. Therefore, tumor cells (Molm-13 N1), were seeded at 100′000 cells per well in a 96 well plate. DARPin® protein #56, DARPin® protein #57, DARPin® protein #58, DARPin® protein #59, DARPin® protein #60, DARPin® protein #61 and DARPin® protein #62 were titrated down starting at 100 nM in 1:5 dilution ratio. Tumor cells were resuspended with diluted DARPin® proteins and incubated 60 minutes at 4° C. The assay was performed in PBS including 2% fetal bovine serum and human serum albumin 20 uM (HSA). After washing twice with Phosphate Buffer saline (PBS), DARPin® protein specific tumor cell binding was detected by adding unlabelled primary […] (anti-rabbit 1-1-1 antibody, CePower) at 2 ug/ml. An incubation step of at least 30 minutes at 4° C. followed. Afterwards, cells were washed with PBS and a secondary anti-rabbit antibody labelled with Alexa Fluor 647 antibody (ThermoFisher) at 2 ug/ml was added. The same incubation conditions applied. Finally, the cells were washed twice and resuspended in Cytofix fixation buffer (BD Biosciences) for 15 min at room temperature (RT). Median fluorescence intensities (MFI) of Alexa Fluor 647 DARPin® labelled cells were measured by Attune NxT (Thermo Fisher) using FlowJo software for analyses and GraphPad Prism 8 for data plotting."}, "[2]": {"molecular_target": "T2, biotinylated extracellular domain of human CD33 (SEQ ID NO: 87), Fc and Avi tagged (human, UniProt P20138 18-259, biotinylated with BirA-GST (Avi tag))", "T2 construct": "also called hCD33; human target hCD33", "T2 sequence (P20138 18-259 R69G)": "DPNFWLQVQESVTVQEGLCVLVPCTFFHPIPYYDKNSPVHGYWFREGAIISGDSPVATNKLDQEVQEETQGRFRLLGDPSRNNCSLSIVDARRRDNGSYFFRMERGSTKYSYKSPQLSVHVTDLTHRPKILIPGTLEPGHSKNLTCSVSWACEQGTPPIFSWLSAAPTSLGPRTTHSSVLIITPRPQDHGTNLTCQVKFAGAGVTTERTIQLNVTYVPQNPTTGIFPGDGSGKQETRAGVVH", "assay": "SPR (ProteOn XPR36), target on GLC chip, DARPin as analyte", "description": "(§1) For that, DARPin® protein #27, DARPin® protein #29, DARPin® protein #47 and DARPin® protein #48 and DARPin® protein #49, DARPin® protein #50, DARPin® protein #51, DARPin® protein #52, DARPin® protein #31, DARPin® protein #53, DARPin® protein #54, DARPin® protein #55, DARPin® protein #34, DARPin® protein #33, DARPin® protein #39 and DARPin® protein #36 were subcloned and expressed as described above into derivatives of the pQE30 (Qiagen) expression vector, containing an N-terminal His-tag, CD33, CD123 and/or CD70 binding ankyrin repeat domains, followed by a CD3 specific ankyrin repeat domain and for some constructs by a human serum albumin specific ankyrin repeat domain.\n(§2) Briefly, biotinylated human CD70, CD123 and CD33 was diluted in PBST (PBS, pH 7.4 containing 0.005% Tween 20®) and coated on a GLC chip (BioRad) to a level of around 200, 460 and 450 resonance units (RU) respectively. HSA in NaOAc pH 5.0 was directly immobilized on the GLC chip to a level of 800 RU. Bio.CD70, bio. CD33 and bio. CD123 required to have Neutravidin coated first to a level of 6000 RU before the biotinylated targets could be applied. The interaction of the selected ankyrin repeat proteins and human CD70, CD123 and CD33 was then measured by injecting 300 μl running buffer (PBS, pH 7.4 containing 0.005% Tween 20®) containing serial dilutions of ankyrin repeat proteins covering a concentration range between 100 nM and 2.6 nM (100, 40, 16, 6.4 and 2.6 nM respectively) for multi-trace SPR measurements, with an association of 120 s and dissociation of 1200 s using a constant flow of 100 μl/min. The regeneration was performed using 30 μl of 4 mM Glycine pH 2. The signals (i.e. resonance unit (RU) values) of the interspots and a reference injection (i.e. injection of running buffer only) were subtracted from the RU traces obtained after injection of ankyrin repeat protein (double-referencing)."}, "[3]": {"molecular_target": "T3, extracellular domain of human CD70 (SEQ ID NO: 89), hCD70-Fc-trimer, ACRO Biosystems (human, UniProt P32970 52-193, chemically biotinylated where the biotinylated form was used)", "T3 construct": "also called human CD70-Fc-trimer; Bio.CD70", "T3 sequence": "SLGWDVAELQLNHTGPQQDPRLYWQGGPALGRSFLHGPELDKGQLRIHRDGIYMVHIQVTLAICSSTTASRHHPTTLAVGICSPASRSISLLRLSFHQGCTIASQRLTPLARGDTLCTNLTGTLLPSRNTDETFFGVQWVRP", "assay": "SPR (ProteOn XPR36), target on GLC chip, DARPin as analyte", "description": "as §1, §2"}, "human serum albumin": {"molecular_target": "T4, human serum albumin (human, UniProt P02768 25-609)", "T4 construct": "also called HSA; SA", "T4 sequence (P02768 25-609 limits assumed)": "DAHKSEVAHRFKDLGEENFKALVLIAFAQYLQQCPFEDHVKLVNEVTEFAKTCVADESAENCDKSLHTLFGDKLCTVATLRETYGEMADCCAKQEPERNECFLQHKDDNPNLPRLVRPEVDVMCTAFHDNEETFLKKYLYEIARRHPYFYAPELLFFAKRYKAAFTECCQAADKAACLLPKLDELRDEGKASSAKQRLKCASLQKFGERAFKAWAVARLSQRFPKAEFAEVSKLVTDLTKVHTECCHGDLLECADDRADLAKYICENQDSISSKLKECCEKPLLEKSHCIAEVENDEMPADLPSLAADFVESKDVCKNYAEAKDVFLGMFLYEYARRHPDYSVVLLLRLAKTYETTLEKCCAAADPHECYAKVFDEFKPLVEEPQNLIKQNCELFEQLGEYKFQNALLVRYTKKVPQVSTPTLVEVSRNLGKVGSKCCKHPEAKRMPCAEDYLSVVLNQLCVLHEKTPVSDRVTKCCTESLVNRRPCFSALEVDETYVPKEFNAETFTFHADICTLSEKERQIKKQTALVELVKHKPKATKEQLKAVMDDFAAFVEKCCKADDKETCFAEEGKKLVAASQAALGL", "assay": "SPR (ProteOn XPR36), target on GLC chip, DARPin as analyte", "description": "as §1, §2"}, "[4]": {"molecular_target": "T5, biotinylated extracellular domain of human CD123 (SEQ ID NO: 88), Fc and Avi tagged (human, UniProt P26951 19-303, biotinylated with BirA-GST (Avi tag))", "T5 construct": "also called hCD123", "T5 sequence": "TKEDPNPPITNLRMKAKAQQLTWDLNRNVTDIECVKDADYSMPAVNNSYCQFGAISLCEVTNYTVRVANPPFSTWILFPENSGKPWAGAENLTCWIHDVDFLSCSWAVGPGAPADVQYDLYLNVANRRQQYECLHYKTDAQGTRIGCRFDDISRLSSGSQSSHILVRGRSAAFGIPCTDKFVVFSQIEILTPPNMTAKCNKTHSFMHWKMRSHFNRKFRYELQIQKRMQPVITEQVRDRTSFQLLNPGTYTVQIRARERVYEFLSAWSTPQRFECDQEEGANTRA", "assay": "SPR (ProteOn XPR36), target on GLC chip, DARPin as analyte", "description": "as §1, §2"}}}
{"binder": "DARPin® protein #59 (designed binder, HSA-HSA-CD70-CD123-CD33-CD3) DLGKKLLEAARAGQDDEVRELLKAGADVNAKDYFSHTPLHLAARNGHLKIVEVLLKAGADVNAKDFAGKTPLHLAAADGHLEIVEVLLKAGADVNAQDIFGKTPADIAADAGHEDIAEVLQKAAGSPTPTPTTPTPTPTTPTPTPTGSDLGKKLLEAARAGQDDEVRELLKAGADVNAKDYFSHTPLHLAARNGHLKIVEVLLKAGADVNAKDFAGKTPLHLAAADGHLEIVEVLLKAGADVNAQDIFGKTPADIAADAGHEDIAEVLQKAAGSPTPTPTTPTPTPTTPTPTPTGSDLGIKLLTAAYDGQLDEVRILLKAGADVNAKDLRGQTPLHYAAGLGHLEIVEVLLKAGADVNAKDLHGWTPLHLAAWSGHLEIVEVLLKAGADVNAQDVEGVTPADLAAVQGHQDIAEVLQKAAGSPTPTPTTPTPTPTTPTPTPTGSDLGKKLLEAALEGQLDEVRELLKAGADVNAKDQEGYTPLHLAAALGHLEIVEVLLKAGADVNAKDQIGRTPLHLAAYKGHLEIVEVLLKAGADVNAQDIIGQTPADLAAQRGHQDIAEVLQKAAGSPTPTPTTPTPTPTTPTPTPTGSDLGVKLLLAAERGQLDEVRILLKAGADVNAKDIAEGYTPLHIAAYQGHLEIVEVLLKAGADVNAKDRYGKTPLHLAAIGGHLEIVEVLLKAGADVNAQDNKGSTPADLAADYGHQDIAEVLQKAAGSPTGSDLGQKLLEAAWAGQDDEVRELLKAGADVNAKNSRGWTPLHTAAQTGHLEIFEVLLKAGADVNAKNDKRVTPLHLAAALGHLEIVEVLLKAGADVNARDSWGTTPADLAAKYGHQDIAEVLQKAA", "values": [{"measurement": "EC50", "setting": "[1]", "result": 0.19, "unit": "nM"}]}
{"binder": "DARPin® protein #58 (designed binder, HSA-HSA-CD70-CD123-CD33-CD3) DLGKKLLEAARAGQDDEVRELLKAGADVNAKDYFSHTPLHLAARNGHLKIVEVLLKAGADVNAKDFAGKTPLHLAAADGHLEIVEVLLKAGADVNAQDIFGKTPADIAADAGHEDIAEVLQKAAGSPTPTPTTPTPTPTTPTPTPTGSDLGKKLLEAARAGQDDEVRELLKAGADVNAKDYFSHTPLHLAARNGHLKIVEVLLKAGADVNAKDFAGKTPLHLAAADGHLEIVEVLLKAGADVNAQDIFGKTPADIAADAGHEDIAEVLQKAAGSPTPTPTTPTPTPTTPTPTPTGSDLGIKLLTAAYDGQLDEVRILLKAGADVNAKDLRGQTPLHYAAGLGHLEIVEVLLKAGADVNAKDLHGWTPLHLAAWSGHLEIVEVLLKAGADVNAQDVEGVTPADLAAVQGHQDIAEVLQKAAGSPTPTPTTPTPTPTTPTPTPTGSDLGWKLLDAAEIGQLDEVRILLKAGADVNAKDKQGITPLHIAAAHGHLEIVEVLLKAGADVNAKDEIGRTPLHLAAFKGHLEIVEVLLKAGADVNAQDIIGETPADLAAVRGHQDIAEVLQKAAGSPTPTPTTPTPTPTTPTPTPTGSDLGVKLLLAAERGQLDEVRILLKAGADVNAKDIAEGYTPLHIAAYQGHLEIVEVLLKAGADVNAKDRYGKTPLHLAAIGGHLEIVEVLLKAGADVNAQDNKGSTPADLAADYGHQDIAEVLQKAAGSPTGSDLGQKLLEAAWAGQDDEVRELLKAGADVNAKNSRGWTPLHTAAQTGHLEIFEVLLKAGADVNAKNDKRVTPLHLAAALGHLEIVEVLLKAGADVNARDSWGTTPADLAAKYGHQDIAEVLQKAA", "values": [{"measurement": "EC50", "setting": "[1]", "result": 0.17, "unit": "nM"}]}
{"binder": "DARPin® protein #60 (designed binder, HSA-HSA-CD70-CD123-CD33-CD3) DLGKKLLEAARAGQDDEVRELLKAGADVNAKDYFSHTPLHLAARNGHLKIVEVLLKAGADVNAKDFAGKTPLHLAAADGHLEIVEVLLKAGADVNAQDIFGKTPADIAADAGHEDIAEVLQKAAGSPTPTPTTPTPTPTTPTPTPTGSDLGKKLLEAARAGQDDEVRELLKAGADVNAKDYFSHTPLHLAARNGHLKIVEVLLKAGADVNAKDFAGKTPLHLAAADGHLEIVEVLLKAGADVNAQDIFGKTPADIAADAGHEDIAEVLQKAAGSPTPTPTTPTPTPTTPTPTPTGSDLGIKLLTAAYDGQLDEVRILLKAGADVNAKDLRGQTPLHYAAGLGHLEIVEVLLKAGADVNAKDLHGWTPLHLAAWSGHLEIVEVLLKAGADVNAQDVEGVTPADLAAVQGHQDIAEVLQKAAGSPTPTPTTPTPTPTTPTPTPTGSDLGKKLLQAARAGQLDEVRELLKAGADVNAKDQYGRTPLHLAAIKGHLEIVEVLLKAGADVNAKDSLGYTPLHLAAVEGPLEIVEVLLKAGADVNAKDAYGQTPLHIAAAWGHLEIVEVLLKAVADVNAQDKSGKTPADLAARAGHQDIAEVLQKAAGSPTPTPTTPTPTPTTPTPTPTGSDLGVKLLLAAERGQLDEVRILLKAGADVNAKDIAEGYTPLHIAAYQGHLEIVEVLLKAGADVNAKDRYGKTPLHLAAIGGHLEIVEVLLKAGADVNAQDNKGSTPADLAADYGHQDIAEVLQKAAGSPTGSDLGQKLLEAAWAGQDDEVRELLKAGADVNAKNSRGWTPLHTAAQTGHLEIFEVLLKAGADVNAKNDKRVTPLHLAAALGHLEIVEVLLKAGADVNARDSWGTTPADLAAKYGHQDIAEVLQKAA", "values": [{"measurement": "EC50", "setting": "[1]", "result": 0.16, "unit": "nM"}]}
{"binder": "DARPin® protein #55 (designed binder, CD70-CD123-CD33-CD3-HSA) MRGSHHHHHHDLGYKLLQAAYDGQLDEVRILLKAGADVNAKDSRGQTPLHYAASIGHLEIVEVLLKAGADVNAKDDHGWTPLHLAAWSGHLEIVEVLLKAGADVNAQDQEGTTPADLAAVQGHQDIAEVLQKAAGSPTPTPTTPTPTPTTPTPTPTGSDLGKKLLEAALEGQLDEVRELLKAGADVNAKDQEGYTPLHLAAALGHLEIVEVLLKAGADVNAKDSIGRTPLHLAAYKGHLEIVEVLLKAGADVNAQDLLGETPADLAAEQGHQDIAEVLQKAAGSPTPTPTTPTPTPTTPTPTPTGSDLGVKLLRAAVHGQLDEVRILLKAGADVNAKDTDGETPLHYAAQFGHLEIVEVLLKAGADVNAKDAYGATPLHWAAWHGHLEIVEVLLKAGADVNAQDVSGATPADLAAKVGHQDIAEVLQKAAGSPTPTPTTPTPTPTTPTPTPTGSDLGQKLLEAAWAGQDDEVRELLKAGADVNAKNSRGWTPLHTAAQTGHLEIFEVLLKAGADVNAKDDKGVTPLHLAAALGHLEIVEVLLKAGADVNAQDSWGTTPADLAAKYGHEDIAEVLQKAAGSPTPTPTTPTPTPTTPTPTPTGSDLGKKLLEAARAGQDDEVRELLKAGADVNAKDYFSHTPLHLAARNGHLKIVEVLLKAGADVNAKDFAGKTPLHLAAADGHLEIVEVLLKAGADVNAQDIFGKTPADIAADAGHEDIAEVLQKAA", "values": [{"measurement": "Kd", "setting": "[2]", "result": 9.6, "unit": "nM"}, {"measurement": "Kd", "setting": "[3]", "result": 0.38, "unit": "nM"}, {"measurement": "Kd", "setting": "human serum albumin", "result": 7.5, "unit": "nM"}, {"measurement": "Kd", "setting": "[4]", "result": 13, "unit": "nM"}]}
